Data taken from patent US8361473B2, “Antibodies and their uses for diagnosis and treatment of cytomegalovirus infection and associated diseases” (priority 2007, dated 2013).

Columns and labels:
[1] = tested on: HLA-A2/pp65 complex (pp65 495-503 peptide); assay: ELISA with phage clones and purified Fab Abs, specific complex; assay type: binding, human; conditions: soluble purified Fab
Protocol: ELISA with phage clones and purified Fab Abs—The binding specificities of individual phage clones and soluble Fab were determined by ELISA using biotinylated scMHC-peptide complexes. ELISA plates (Falcon) were coated overnight with BSA-biotin (1 μg/well). After having been washed, the plates were incubated (1 hour, RT) with streptavidin (1 μg/well), washed extensively, and further incubated (1 hour, RT) with 0.5 μg of MHC/peptide complexes. The plates were blocked for 30 minutes at RT with PBS/2% skim milk and subsequently were incubated for 1 hour at RT with phage clones (˜10^9 phages/well) or various concentrations of soluble purified Fab. […]
A large human Fab library containing 3.7×10^10 different Fab clones was used for the selection on biotinylatd HLA-A2/pp65 complexes (De Haard H J., et al., 1999). […] Specificity of the selected phage antibodies against the complex was analyzed by a differential ELISA assay in which binding was tested against specific (pp65 495-503 peptide; SEQ ID NO:3) and non specific (gp100 280-288 peptide; SEQ ID NO:4) biotinylated HLA-A2/peptide complexes. […]
To determine the correct folding of the bound complexes and their stability during the binding assays, the ability of the complexes to react with the conformation-specific mAb, w6/32, that recognizes HLA complexes only when folded correctly and when containing peptide was monitored.

[2] = target: T1, pp65-loaded RMA-S-HHD cells (UniProt P06725+P61769); assay: Flow cytometry on peptide-loaded RMA-S-HHD cells; assay type: cell-based, murine; conditions: Fab, control: EBV derived peptide
T1 construct: expressed in transfected cells; host or cells: murine TAP2-deficient RMA-S cells (RMA-S-HHD)
Protocol: Flow cytometry—The B cell line RMAS-HHD, which is transfected with a single-chain β2m-HLA-A2 gene, the EBV-transformed HLA-A2^+ JY cells, and the HLA-A2− B cell line APD-70 were used to determine the reactivity of the recombinant Fab Abs with cell surface-expressed HLA-A2/peptide complexes. Peptide pulsing was performed as indicated: 10^6 cells were washed twice with serum-free RPMI and incubated overnight at 26° C. or 37° C., respectively, in medium containing 1-50 μM of the peptide. The RMAS-HHD cells were subsequently incubated at 37° C. for 2-3 hours to stabilize cell surface expression of MHC-peptide complexes.
Cells were incubated for 60 minutes at 4° C. with recombinant Fab Abs (10 μg/ml) in 100 μl PBS. After one wash, the cells were incubated with 1 μg anti-human Fab (Jackson ImmunoResearch) for another 60 minutes at 4° C. After three washes, the cells were resuspended in ice-cold PBS. The cells were analyzed by a FACStar flow cytometer (BD Biosciences, San Jose, Calif.).
The pp65495-503 peptide and control peptides were loaded on RMA-S-HHD cells and the ability of the selected Fab Abs to bind to peptide-loaded cells was monitored by flow cytometry.

B1: F5: human recombinant TCR-like Fab clone specific for HLA-A2/pp65 495-503; heavy chain SEQ ID NO:20, light chain SEQ ID NO:22 (antibody)
heavy: QVQLQESGPGLVKPSETLSLTCTVSGGSISSSNYYWGWIRQPPGKGLEWIGAIYYSGSTYYNPSLKSRVAISVDTSKNQFSLKLSSVTAADTAVYYCARRIGVAGQWYFDLWGRGTLVTVSSASTKGPSVFPLAPSSKSTSGGTAALGCLVKDYFPEPVTVSWNSGALTSGVHTFPAVLQSSGLYSLSSVVTVPSSSLGTQTYICNVNHKPSNTKVDKKVEPKSC
light: LNFMLTQPHSVSGSPGKTVTISCTRSTGSITSNYVHWYQQRPGSSPTTVICEDNERPSGVPDRFSGSIDISSNSASLTISGLKTEDEADYYCQSYDDSNHISVFGTGTKVTVLGQPKANPCLISDFYPGAVTVAWKADGSPVKAGVETTKPSKQSNNKYAASSYLSLTPEQWKSHRSYSCQVTHEGSTVEKTVAPAECS
modifications: F5 Fab heavy chain polypeptide sequence; F5 Fab light chain polypeptide sequence
[1]
  binding to the specific HLA-A2/pp65 complex: Specificity towards HLA-A2/pp65 complex
[2]
  reactivity with peptide-loaded RMA-S-HHD cells: reacted only with pp65-loaded RMA-S-HHD cells
